Read-outs that look alike come from different tables or passages of the source. Blank lines part the entries; values can stand above or below the molecule they belong to.
Target: T1, recombinant CD177 (UniProt Q8N6Q3 22-408)
T1 construct: CD177, GPI-anchored neutrophil membrane receptor; recombinant soluble form that lacks the C-terminal GPI-anchor domain; secreted via an N-terminal Ig1 secretion signal peptide; Made from plasmid pTT5; also called rCD177; not shown: Fc (human Ig1), C-terminal, cleaved
T1 sequence (looked up): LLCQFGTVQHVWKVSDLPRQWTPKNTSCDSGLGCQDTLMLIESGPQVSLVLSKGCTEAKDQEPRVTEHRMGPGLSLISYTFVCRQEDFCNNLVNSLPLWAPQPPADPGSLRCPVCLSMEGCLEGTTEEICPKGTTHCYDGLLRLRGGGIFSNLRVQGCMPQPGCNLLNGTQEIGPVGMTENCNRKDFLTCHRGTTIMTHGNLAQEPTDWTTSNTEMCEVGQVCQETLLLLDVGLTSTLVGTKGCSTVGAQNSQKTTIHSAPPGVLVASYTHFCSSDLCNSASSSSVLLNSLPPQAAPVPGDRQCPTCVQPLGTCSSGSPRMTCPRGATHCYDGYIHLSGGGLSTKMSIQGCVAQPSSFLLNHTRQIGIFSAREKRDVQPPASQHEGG
Test: SPR; CD177 immobilised on a GLH sensor chip by standard amine chemistry, PR3 as soluble analyte; ProteOn XPR36

Kd: 4.1 nM
Molecule: recombinant PR3 (enzyme)

Kd: 57 nM
Molecule: monomeric PR3 hydrophobic patch mutant (Ile217Ala, Trp218Ala) (enzyme)

Kd (both partners purified): 4.1 nM
B1: neutrophil-derived PR3 (enzyme, UniProt P24158 28-248, looked up)
chain: IVGGHEAQPHSRPYMASLQMRGNPGSHFCGGTLIHPSFVLTAAHCLRDIPQRLVNVVLGAHNVRTQEPTQQHFSVAQVFLNNYDAENKLNDVLLIQLSSPANLSASVATVQLPQQDQPVPHGTQCLAMGWGRVGAHDPPAQVLQELNVTVVTFFCRPHNICTFVPRRKAGICFGDSGGPLICDGIIQGIDSFVIWGCATRLFPDFFTRVALYVDWIRSTLR
notes: Proteinase 3 (PR3), neutrophil serine protease, purified from neutrophils, proteolytically active; also called nPR3; proteinase 3; source: bought: Athens Research&Technology; neutrophil-derived

— article PMC5327412, “Characterization of the CD177 interaction with the ANCA antigen proteinase 3” (Scientific Reports, 2017)
